Measured values as given in patent EP1731613A2 (DEGUSSA AG, dated 2006).

Biological target: T1, Zwf sub-unit (Zwf protein) of glucose 6-phosphate dehydrogenase from Corynebacterium glutamicum ATCC13032 (Corynebacterium glutamicum ATCC13032)
T1 construct: also called Zwf gene product; 60 kDa protein
T1 chain: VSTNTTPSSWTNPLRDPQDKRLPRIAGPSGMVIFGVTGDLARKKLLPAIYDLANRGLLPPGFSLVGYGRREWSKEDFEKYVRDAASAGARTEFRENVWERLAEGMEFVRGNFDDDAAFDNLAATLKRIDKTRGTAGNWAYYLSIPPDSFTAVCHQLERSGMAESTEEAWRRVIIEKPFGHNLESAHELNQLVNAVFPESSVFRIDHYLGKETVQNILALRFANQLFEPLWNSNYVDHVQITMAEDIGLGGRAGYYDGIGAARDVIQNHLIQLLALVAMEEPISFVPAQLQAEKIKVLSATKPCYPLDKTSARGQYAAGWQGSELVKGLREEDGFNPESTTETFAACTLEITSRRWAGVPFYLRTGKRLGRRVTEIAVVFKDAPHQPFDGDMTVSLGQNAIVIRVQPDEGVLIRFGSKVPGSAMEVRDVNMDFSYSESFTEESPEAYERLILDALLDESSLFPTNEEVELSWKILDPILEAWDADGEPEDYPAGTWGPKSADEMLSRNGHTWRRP
Assay: co-purification over DEAE, Red-Sepharose and 2'5'-ADP-sepharose and gel filtration (Superdex G200pg); SDS-PAGE

B1: OpcA sub-unit (OpcA protein) of glucose 6-phosphate dehydrogenase from Corynebacterium glutamicum ATCC13032 (enzyme)
chain: MIFELPDTTTQQISKTLTRLRESGTQVTTGRVLTLIVVTDSESDVAAVTESTNEASREHPSRVIILVVGDKTAENKVDAEVRIGGDAGASEMIIMHLNGPVADKLQYVVTPLLLPDTPIVAWWPGESPKNPSQDPIGRIAQRRITDALYDRDDALEDRVENYHPGDTDMTWARLTQWRGLVASSLDHPPHSEITSVRLTGASGSTSVDLAAGWLARRLKVPVIREVTDAPTVPTDEFGTPLLAIQRLEIVRTTGSIIITIYDAHTLQVEMPESGNAPSLVAIGRRSESDCLSEELRHMDPDLGYQHALSGLSSVKLETV
notes: also called OpcA gene product; 30 kDa protein
- binding result: binds
